Where “and” joins values, the source holds several entries; their conditions need not be identical. Equal entries are not always repeated. Where two headings read alike, the source gives them in different places.
B1: AAV2 Rep68 origin binding domain (OBD) (domain or fragment, adeno-associated virus 2 (AAV2))
chain: MPGFYEIVIKVPSDLDGHLPGISDSFVNWVAEKEWELPPDSDMDLNLIEQAPLTVAEKLQRDFLTEWRRVSKAPEALFFVQFEKGESYFHMHVLVETTGVKSMVLGRFLSQIREKLIQRIYRGIEPTLPNWFAVTKTRNGAGGGNKVVDECYIPNYLLPKTQPELQWAWTNMEQYLSACLNLTERKRLVAQHLTHVSQTQEQNKENQNPN

Experiments:
[1] = target: AAV2 Rep68* (Rep68 C151S) (adeno-associated virus 2 (AAV2)) (UniProt P03132); test: cryo-EM structure
[2] = target: AAV2 Rep68* (Rep68 C151S) (adeno-associated virus 2 (AAV2)) (UniProt P03132); test: cryo-EM structure; remark: listed apart in the source
[3] = target: AAV2 Rep68* (Rep68 C151S) (adeno-associated virus 2 (AAV2)) (UniProt P03132); test: cryo-EM structure; remark: listed apart in the source
[4] = target: AAV2 Rep68* (Rep68 C151S) (adeno-associated virus 2 (AAV2)) (UniProt P03132); test: cryo-EM structure; remark: listed apart in the source
[5] = target: AAV2 Rep68* (Rep68 C151S) (adeno-associated virus 2 (AAV2)) (UniProt P03132); test: cryo-EM structure; remark: listed apart in the source
cross-linking = target: the molecule itself; test: cross-linking

Molecule | stoichiometry N [1] | stoichiometry N [2] | stoichiometry N [3] | stoichiometry N [4] | stoichiometry N [5] | stoichiometry N (cross-linking)
AAV2 Rep68* (Rep68 C151S) (from UniProt P03132 1-536) (enzyme) | 6 and 7 | 7 | 8 | 7 | 6 | –
B1 | – | – | – | – | – | 8

From paper PMC7736791 (Nucleic Acids Research, 2020)
